Patent publication US20240132578A1
Values joined by “and” are separate entries in the source; they are usually repeats but may differ in a detail not shown here. Equal entries are not always repeated.

B1: PGT-137 (B cell culture well 5345_I1) (antibody, V domains shown)
VH: EVHLEESGPGLVRPSETLSLTCTASGGSIRGGEWGDSDYHWGWVRHSPEKGLEWIGSIHWRGTTHYNAPFRGRGRLSIDLSRNQFSLRLTSVTAEDTAVYYCVKHKYHDIVMVVPIAGWFDPWGQGLQVTVSS
VL: EIMMTQSPAILSVSPGDRATLSCRASQSVKNNLAWYQKRPGQAPRLLIFDTSSRASGIPARFSGGGSGTEFTLTVNSMQSEDFATYYCQQYEEWPRTFGQGTKVEIK
B2: PGT-123 (B cell culture well 4858_P8) (antibody, V domains shown)
VH: QLHLQESGPGLVKPPETLSLTCSVSGASINDAYWSWIRQSPGKRPEWVGYVHHSGDTNYNPSLKRRVTFSLDTAKNEVSLKLVDLTAADSATYFCARALHGKRIYGIVALGELFTYFYMDVWGKGTAVTVSS
VL: SSMSVSPGETAKISCGKESIGSRAVQWYQQKPGQPPSLIIYNNQDRPAGVPERFSASPDFRPGTTATLTITNVDAEDEADYYCHIYDARGGTNWVFDRGTTLTVL
B3: PGT-136 (B cell culture wells 5366_P21 and 5329_C19) (antibody, V domains shown)
VH: QLQLQESGPGLVKPSETLSLTCTVSGGSMRGTDWGENDFHYGWIRQSSAKGLEWIGSIHWRGRTTHYKTSFRSRATLSIDTSNNRFSLTFSFVTAADTAVYYCARHKYHDIFRVVPVAGWFDPWGQGLLVTVSS
VL: EIVMTQSPPTLSVSPGETATLSCRASQNVKNNLAWYQLKPGQAPRLLIFDASSRAGGIPDRFSGSGYGTDFTLTVNSVQSEDFGDYFCQQYEEWPRTFGQGTKVDIK
B4: Antibody of B cell culture well 4869_K15 (antibody, V domains shown)
VH: QVHLQESGPGLVTPSETLSLTCTVSNGSVSGRFWSWIRQSPGRGLEWIGYFSDTDRSEYNPSLRSRLTLSVDRSKNQLSLRLKSVTAADSATYYCARAQQGKRIYGIVSFGEFFYYYYMDAWGKGTPVTVSS
VL: SLNPLSLAPGATAKIPCGERSRGSRAVQWYQQKPGQAPTLIIYNNQDRPAGVSERFSGNPDVAIGVTATLTISRVEVGDEADYYCHYWDSRSPISWIFGGGTQLTVL

Tests used:
Assay in all cases: cell-based or functional assay
[1] = target: HIV-1 Env of pseudovirus MGRM-C-26 (HIV-1)
[2] = target: HIV-1 Env of pseudovirus JRCSF (HIV-1) (UniProt P20871)
[3] = target: HIV-1 Env of pseudovirus 93IN905 (HIV-1)
[4] = target: HIV-1 Env of pseudovirus 94UG103 (HIV-1)
[5] = target: HIV-1 Env of pseudovirus 92BR020 (HIV-1)

Binder | Primary Neutralization Index (B cell culture supernatant) [1] | Primary Neutralization Index (B cell culture supernatant) [2] | Primary Neutralization Index (B cell culture supernatant) [3] | Primary Neutralization Index (B cell culture supernatant) [4] | Primary Neutralization Index (B cell culture supernatant) [5]
B1 | 11.3 | 1.1 | 3.3 | – | –
B2 | 33.8 | 1.6 | – | 1.1 | 2.8
B3 | 6.2 and 6 | 1.1 and 0.9 | 5.5 and 5.6 | – | –
B4 | 104 | 2.1 | – | 1.5 | 3.9
